According to article PMC5481773, “Structural insights into the function of ZRANB3 in replication stress response” (Nature Communications, 2017):
Numbering of substitutions follows the chain as printed. Names and notes keep the numbering of the source.

B1: N1036A: ZRANB3 HNH active site mutant (protein, UniProt Q5FWF4 1-1079, looked up, variant N1036A)
DNA annealing helicase and …: MPRVHNIKKSLTPHISCVTNESDNLLDFLPDRLRAKLLPFQKDGIIFALKRNGRCMVADEMGLGKTIQAIGITYFYKEEWPLLIVVPSSLRYPWTEEIEKWIPELSPEEINVIQNKTDVRRMSTSKVTVLGYGLLTADAKTLIDALNNQNFKVVIVDESHYMKSRNATRSRILLPIVQKARRAILLTGTPALGRPEELFMQIEALFPQKFGRWTDYAKRYCNAHIRYFGKRPQWDCRGASNLNELHQLLSDIMIRRLKTEVLTQLPPKVRQRIPFDLPSAAAKELNTSFEEWEKIMRTPNSGAMETVMGLITRMFKQTAIAKAGAVKDYIKMMLQNDSLKFLVFAHHLSMLQACTEAVIENKTRYIRIDGSVSSSERIHLVNQFQKDPDTRVAILSIQAAGQGLTFTAASHVVFAELYWDPGHIKQAEDRAHRIGQCSSVNIHYLIANGTLDTLMWGMLNRKAQVTGSTLNGRKEKIQAEEGDKEKWDFLQFAEAWTPNDSSEELRKEALFTHFEKEKQHDIRSFFVPQPKKRQLMTSCDESKRFREENTVVSSDPTKTAARDIIDYESDVEPETKRLKLAASEDHCSPSEETPSQSKQIRTPLVESVQEAKAQLTTPAFPVEGWQCSLCTYINNSELPYCEMCETPQGSAVMQIDSLNHIQDKNEKDDSQKDTSKKVQTISDCEKQALAQSEPGQLADSKEETPKIEKEDGLTSQPGNEQWKSSDTLPVYDTLMFCASRNTDRIHIYTKDGKQMSCNFIPLDIKLDLWEDLPASFQLKQYRSLILRFVREWSSLTAMKQRIIRKSGQLFCSPILALEEITKQQTKQNCTKRYITKEDVAVASMDKVKNVGGHVRLITKESRPRDPFTKKLLEDGACVPFLNPYTVQADLTVKPSTSKGYLQAVDNEGNPLCLRCQQPTCQTKQACKANSWDSRFCSLKCQEEFWIRSNNSYLRAKVFETEHGVCQLCNVNAQELFLRLRDAPKSQRKNLLYATWTSKLPLEQLNEMIRNPGEGHFWQVDHIKPVYGGGGQCSLDALQTLCTVCHKERTARQAKERSQVRRQSLASKHGSDITRFLVKK
B2: H1015A: ZRANB3 HNH active site mutant (protein, UniProt Q5FWF4 1-1079, looked up, variant H1015A)
DNA annealing helicase and …: B1 DNA annealing helicase and … with H1015A, A1036N
B3: H1021A: ZRANB3 HNH active site mutant (protein, UniProt Q5FWF4 1-1079, looked up, variant H1021A)
DNA annealing helicase and …: B1 DNA annealing helicase and … with H1021A, A1036N
B4: T66A: cancer associated ZRANB3 mutant (protein, UniProt Q5FWF4 1-1079, looked up, variant T66A)
DNA annealing helicase and …: B1 DNA annealing helicase and … with T66A, A1036N
B5: K984A: ZRANB3 basic residues HNH mutant (protein, UniProt Q5FWF4 1-1079, looked up, variant K984A)
DNA annealing helicase and …: B1 DNA annealing helicase and … with K984A, A1036N
B6: H1045A: ZRANB3 HNH active site mutant (protein, UniProt Q5FWF4 1-1079, looked up, variant H1045A)
DNA annealing helicase and …: B1 DNA annealing helicase and … with A1036N, H1045A
B7: R1009A: ZRANB3 basic residues HNH mutant (protein, UniProt Q5FWF4 1-1079, looked up, variant R1009A)
DNA annealing helicase and …: B1 DNA annealing helicase and … with R1009A, A1036N
B8: K1046A, R1048A: ZRANB3 double mutant in helix α8 (protein, UniProt Q5FWF4 1-1079, looked up, variant K1046A R1048A)
DNA annealing helicase and …: B1 DNA annealing helicase and … with A1036N, K1046A, R1048A
B9: D1020A: ZRANB3 HNH active site mutant (protein, UniProt Q5FWF4 1-1079, looked up, variant D1020A)
DNA annealing helicase and …: B1 DNA annealing helicase and … with D1020A, A1036N
B10: K998A: ZRANB3 basic residues HNH mutant (protein, UniProt Q5FWF4 1-1079, looked up, variant K998A)
DNA annealing helicase and …: B1 DNA annealing helicase and … with K998A, A1036N
B11: R987A: ZRANB3 basic residues HNH mutant (protein, UniProt Q5FWF4 1-1079, looked up, variant R987A)
DNA annealing helicase and …: B1 DNA annealing helicase and … with R987A, A1036N
B12: R947Q: cancer associated ZRANB3 mutant (protein, UniProt Q5FWF4 1-1079, looked up, variant R947Q)
DNA annealing helicase and …: B1 DNA annealing helicase and … with R947Q, A1036N
B13: K988A: ZRANB3 basic residues HNH mutant (protein, UniProt Q5FWF4 1-1079, looked up, variant K988A)
DNA annealing helicase and …: B1 DNA annealing helicase and … with K988A, A1036N
B14: D1020Y: cancer associated ZRANB3 mutant (protein, UniProt Q5FWF4 1-1079, looked up, variant D1020Y)
DNA annealing helicase and …: B1 DNA annealing helicase and … with D1020Y, A1036N

Test system: not listed separately
Assay: NADH-coupled ATPase assay of ZRANB3 proteins
Format: biochemical
Conditions: 150 nM ZRANB3, 5 mM ATP, 0.5 μM flap DNA, 24 °C, A340 nm, average rates
Protocol: The NADH-coupled ATPase assay is based on a reaction in which the regeneration of hydrolysed ATP is coupled to the oxidation of NADH[59]. It was used as described, with minor modifications. ZRANB3 (150 nM) was added to a 150 μl reaction containing 25 mM Tris-Cl pH 7.5, 13 mM MgCl2, 1.8 mM DTT, 100 μg ml^−1 BSA, 3 mM phosphoenolpyruvate, 36 U ml^−1 pyruvate kinase, 20 U ml^−1 lactate dehydrogenase, 0.5 μM flap DNA, and 5 mM ATP, with 750 μM NADH added immediately before ZRANB3. Reactions were mixed for 1 min on a shaker at 23 °C and analysed by measuring A340 nm at 20 s intervals during 60 min, on a Spectramax 250 microplate spectrophotometer at 24 °C. Linear titration of freshly prepared NADH was performed to obtain a standard curve for units of absorbance mM^−1 NADH. ATPase rates were calculated from data collected between time points where product formation was linear with respect to time.

Row | ATP hydrolysis rate | Molecule
1 | 14.05 ± 2.46 µmol/L/min | B1
2 | 18.67 ± 2.24 µmol/L/min | B2
3 | 18.59 ± 1.98 µmol/L/min | B3
4 | 0.45 ± 0.03 µmol/L/min | B4
5 | 20.93 ± 2.01 µmol/L/min | B5
6 | 8.91 ± 0.66 µmol/L/min | B6
7 | 7.49 ± 2.57 µmol/L/min | B7
8 | 19.38 ± 1.74 µmol/L/min | B8
9 | 12.94 ± 0.67 µmol/L/min | B9
10 | 15.12 ± 0.48 µmol/L/min | B10
11 | 6.34 ± 0.40 µmol/L/min | B11
12 | 10.24 ± 1.15 µmol/L/min | B12
13 | 18.83 ± 1.94 µmol/L/min | B13
14 | 11.60 ± 3.30 µmol/L/min | B14

Same assay, conditions: 150 nM ZRANB3, 5 mM ATP, 0.5 μM flap DNA, 24 °C, average rates

Row | k | Molecule
15 | 93.71 ± 16.43 min⁻¹ | B1
16 | 124.46 ± 14.96 min⁻¹ | B2
17 | 123.95 ± 13.19 min⁻¹ | B3
18 | 3.02 ± 0.21 min⁻¹ | B4
19 | 139.56 ± 13.45 min⁻¹ | B5
20 | 59.42 ± 4.40 min⁻¹ | B6
21 | 49.94 ± 17.14 min⁻¹ | B7
22 | 129.23 ± 11.62 min⁻¹ | B8
23 | 86.32 ± 4.49 min⁻¹ | B9
24 | 100.85 ± 3.22 min⁻¹ | B10
25 | 42.31 ± 2.70 min⁻¹ | B11
26 | 68.26 ± 7.70 min⁻¹ | B12
27 | 125.55 ± 12.95 min⁻¹ | B13
28 | 77.36 ± 22.04 min⁻¹ | B14

Test system: splayed DNA duplex
Assay: Nuclease assay with wild-type and mutant ZRANB3 proteins
Format: biochemical
Conditions: 200 nM nuclease, 10 nM fluorescently labelled DNA substrate, 2 mM ATP, 30 °C, 60 min, native PAGE (Fig. 3c)
Excerpt: Figure 3 Characterisation of the ZRANB3 HNH active site. (a) Overlay of the T4 endonuclease VII (yellow) and the ZRANB3 HNH (white) structures. […] (b) Overlay of the T4 endonuclease VII (yellow, labels in italics) and the ZRANB3 HNH (white) structures. Mg^2+ ion in T4 endonuclease is shown as a purple sphere. His1021, Asp1020 and His1045 in the HNH structure overlap with the active site residues of T4 endonuclease VII. (c) Nuclease assay with the wild-type and mutant ZRANB3 proteins in the presence and absence of ATP. Reactions were analysed by native poly-acrylamide gel electrophoresis. Indicated are mobilities of the fluorescently labelled DNA substrate and product. (d) Nuclease assay with non-hydrolysable ATP homologues. Shown are controls with the wild-type ZRANB3 and the ATPase dead K65R mutant in the presence of ATP.
Oligonucleotides used in the nuclease assays (5′-[…]-[…]-3′ and Cy3 5′-end-labelled 5′-[…]-[…]-3′) were incubated in 10 mM Tris-HCl pH 7.5, 50 mM NaCl for 3 min at 94 °C, after which the reactions were allowed to gradually cool down.
The nuclease assays with ZRANB3 was performed essentially as described in ref. [9]. Briefly, reaction mixtures containing the indicated nuclease (200 nM) and fluorescently labelled DNA substrate (10 nM) in 10 μl of reaction buffer (50 mM Tris-HCl; 50 mM NaCl; 5 mM MgCl2; 2 mM ATP (Sigma); pH 7.5) were incubated at 30 °C for 60 min. The reactions were stopped by incubation with 0.1% SDS and 4 mg ml^−1 of proteinase K at 30 °C for 45 min. The reactions were then mixed with sucrose (10% final concentration) and resolved in a 10% polyacrylamide gel in 0.5 × TBE buffer (45 mM Tris-borate, 1 mM EDTA; pH 7.5). The fluorescent DNA species were visualized and quantified using Pharos Mx imager and Quantity one software (BioRad).

Row | Molecule | ZRANB3 endonuclease activity of mutant protein
29 | B1 | substantially reduced
30 | B3 | completely abrogated
31 | B6 | completely abrogated
32 | B9 | completely abrogated
